From patent publication US20260347455 (published 2026)

T1: human BMP6 (Peprotech 120-06) (human)
T1 chain: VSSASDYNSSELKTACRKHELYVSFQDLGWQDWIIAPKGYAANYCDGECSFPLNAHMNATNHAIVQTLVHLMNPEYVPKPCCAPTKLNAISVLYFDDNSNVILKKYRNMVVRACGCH


Tests used:
[1] = target: T1, human BMP6 (Peprotech 120-06); assay: SPR, 37C, pH 7.6
[2] = target: T1, human BMP6 (Peprotech 120-06); assay: SPR, 37C, pH 7.6, bivalent (relative KD)

| Kd [1] [nM] | Kd [2] [nM] | Binder |
| --- | --- | --- |
| 0.14 | – | CL-58838 Fab (antibody, V domains shown) VH: QVQLVESGGGLVKPGGSLRLSCAASGFTFSDYYMSWIRQAPGKGLEWVSYISISGSTIYYADSVKGRFTISRDNAMDSLYLQMNSLRAEDTAVYYCARRSSGWYDYWGQGTLVTVSS VL: EIVLTQSPGTLSLSPGERATLSCWASQRVVYRYLAWYQRKPGQAPRLLIYGAFNRATGIPDRFSGSGSGTDFSLTISRLEPEDFAVYYCHQYGSSPPTFGQGTKVEIK |
| – | 0.07 | CL-58838 IgG4 (antibody, V domains shown) VH: QVQLVESGGGLVKPGGSLRLSCAASGFTFSDYYMSWIRQAPGKGLEWVSYISISGSTIYYADSVKGRFTISRDNAMDSLYLQMNSLRAEDTAVYYCARRSSGWYDYWGQGTLVTVSS VL: EIVLTQSPGTLSLSPGERATLSCWASQRVVYRYLAWYQRKPGQAPRLLIYGAFNRATGIPDRFSGSGSGTDFSLTISRLEPEDFAVYYCHQYGSSPPTFGQGTKVEIKR |
